Measured values from PMC9106297, “Structure of a TRAPPII-Rab11 activation intermediate reveals GTPase substrate selection mechanisms” (Science Advances, 2022).

T1: Trs31 (TRAPP core subunit, in purified TRAPPII) (S. cerevisiae, UniProt Q03337 1-283)
T1 construct: Trs31, S. cerevisiae, endogenous; source: endogenous, purified from S. cerevisiae as a subunit of TRAPPII
T1 sequence (looked up): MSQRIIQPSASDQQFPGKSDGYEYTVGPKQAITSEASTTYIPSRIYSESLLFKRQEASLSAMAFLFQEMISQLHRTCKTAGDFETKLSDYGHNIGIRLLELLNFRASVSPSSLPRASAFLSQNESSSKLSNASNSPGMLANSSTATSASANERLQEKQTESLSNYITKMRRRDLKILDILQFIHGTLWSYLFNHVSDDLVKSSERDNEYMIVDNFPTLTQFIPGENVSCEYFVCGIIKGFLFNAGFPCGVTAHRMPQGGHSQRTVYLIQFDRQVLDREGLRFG

T2: Trs120 (TRAPPII-specific subunit, in purified TRAPPII) (S. cerevisiae, UniProt Q04183 1-1289)
T2 construct: Trs120, S. cerevisiae, endogenous; also called Trs120 lid; source: endogenous, purified from S. cerevisiae as a subunit of TRAPPII
T2 sequence (looked up): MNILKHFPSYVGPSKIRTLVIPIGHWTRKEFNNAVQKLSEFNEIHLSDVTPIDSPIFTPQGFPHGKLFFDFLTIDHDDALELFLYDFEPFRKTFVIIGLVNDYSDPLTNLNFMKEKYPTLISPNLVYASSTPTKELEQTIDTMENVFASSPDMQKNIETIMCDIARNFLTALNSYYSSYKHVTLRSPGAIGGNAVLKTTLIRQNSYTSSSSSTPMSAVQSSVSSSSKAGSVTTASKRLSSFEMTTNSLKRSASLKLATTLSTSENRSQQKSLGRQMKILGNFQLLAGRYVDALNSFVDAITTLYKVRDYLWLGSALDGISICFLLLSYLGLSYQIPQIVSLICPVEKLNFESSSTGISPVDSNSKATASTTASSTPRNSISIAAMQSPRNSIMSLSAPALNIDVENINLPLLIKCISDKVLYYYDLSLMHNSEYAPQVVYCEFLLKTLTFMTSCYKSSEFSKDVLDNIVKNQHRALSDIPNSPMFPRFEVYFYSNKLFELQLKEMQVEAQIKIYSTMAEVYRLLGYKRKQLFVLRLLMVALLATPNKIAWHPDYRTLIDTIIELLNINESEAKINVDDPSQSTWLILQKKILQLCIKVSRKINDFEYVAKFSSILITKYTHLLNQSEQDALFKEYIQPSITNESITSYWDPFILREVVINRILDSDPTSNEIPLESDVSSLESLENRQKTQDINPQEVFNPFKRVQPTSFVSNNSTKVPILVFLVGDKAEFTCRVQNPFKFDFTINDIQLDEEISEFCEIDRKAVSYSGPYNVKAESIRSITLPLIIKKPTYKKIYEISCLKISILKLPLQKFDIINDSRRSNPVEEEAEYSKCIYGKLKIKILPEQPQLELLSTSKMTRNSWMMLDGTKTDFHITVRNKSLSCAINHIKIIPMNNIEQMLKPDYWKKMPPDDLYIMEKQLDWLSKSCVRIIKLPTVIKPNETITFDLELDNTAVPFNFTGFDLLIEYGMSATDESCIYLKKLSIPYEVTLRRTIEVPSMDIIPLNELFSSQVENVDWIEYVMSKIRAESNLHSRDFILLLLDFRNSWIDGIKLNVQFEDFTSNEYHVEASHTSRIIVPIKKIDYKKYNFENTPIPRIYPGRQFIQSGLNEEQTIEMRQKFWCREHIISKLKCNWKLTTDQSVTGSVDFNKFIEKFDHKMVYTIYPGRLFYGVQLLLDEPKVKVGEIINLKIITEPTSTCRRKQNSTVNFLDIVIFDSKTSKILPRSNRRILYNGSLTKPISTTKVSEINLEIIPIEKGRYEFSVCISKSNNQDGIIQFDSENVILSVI

B1: Rab11/Ypt32-7xHis (natural protein, S. cerevisiae, UniProt P51996 1-220, looked up)
chain: MSNEDYGYDYDYLFKIVLIGDSGVGKSNLLSRFTTDEFNIESKSTIGVEFATRTIEVENKKIKAQIWDTAGQERYRAITSAYYRGAVGALIVYDISKSSSYENCNHWLTELRENADDNVAVGLIGNKSDLAHLRAVPTDEAKNFAMENQMLFTETSALNSDNVDKAFRELIVAIFQMVSKHQVDLSGSGTNNMGSNGAPKGPTISLTPAPKEDKKKKSSN
notes: Ypt32 (yeast Rab11 paralog), S. cerevisiae; the C-terminal cysteines (residues 221 and 222) were substituted with the 7xHis tag; Made nucleotide-free with calf intestine alkaline phosphatase for the complex with TRAPPII; also called nucleotide-free Rab11/Ypt32; not shown: GST, N-terminal, cleaved; 7xHis, C-terminal, kept

Assays:
Test in all cases: cryo-EM structure; TRAPPII purified from yeast, incubated with tenfold molar excess of Rab11/Ypt32-7xHis and calf intestine alkaline phosphatase at 4°C overnight (nucleotide-free Rab), complex purified on Calmodulin Sepharose and by SEC; 10 mM tris (pH 8.0), 150 mM NaCl, 0.1% CHAPS, 1 mM Mg acetate, 1 mM dithiothreitol; single-particle cryo-EM
Conditions in all cases: both partners purified
Rab11/Ypt32-7xHis = target: B1
[1] = target: T1, Trs31 (TRAPP core subunit, in purified …)
[2] = target: T2, Trs120 (TRAPPII-specific subunit, in …)

Row | binding result (Rab11/Ypt32-7xHis) | binding result [1] | binding result [2] | Binder
1 | binds | – | – | Bet5 (TRAPP core subunit, in purified TRAPPII) (natural protein, S. cerevisiae, UniProt Q03630 1-159, looked up, Bet5, S. cerevisiae, endogenous; source: endogenous, purified from S. cerevisiae as a subunit of TRAPPII) MGIYSFWIFDRHCNCIFDREWTLASNSASGTINSKQNEEDAKLLYGMIFSLRSITQKLSKGSVKNDIRSISTGKYRVHTYCTASGLWFVLLSDFKQQSYTQVLQYIYSHIYVKYVSNNLLSPYDFAENENEMRGQGTRKITNRNFISVLESFLAPMVNQ
2 | binds | – | – | Bet3 (TRAPP core subunit, in purified TRAPPII) (natural protein, S. cerevisiae, UniProt P36149 1-193, looked up, Bet3, S. cerevisiae, endogenous; source: endogenous, purified from S. cerevisiae as a subunit of TRAPPII) MVSTTQSRSLKAMGEEIWKNKTEKINTELFTLTYGSIVAQLCQDYERDFNKVNDHLYSMGYNIGCRLIEDFLARTALPRCENLVKTSEVLSKCAFKIFLNITPNITNWSHNKDTFSLILDENPLADFVELPMDAMKSLWYSNILCGVLKGSLEMVQLDCDVWFVSDILRGDSQTEIKVKLNRILKDEIPIGED
3 | – | binds | binds | B1
4 | binds | – | – | Trs23 (TRAPP core subunit, in purified TRAPPII) (natural protein, S. cerevisiae, UniProt Q03784 1-219, looked up, Trs23, S. cerevisiae, endogenous; source: endogenous, purified from S. cerevisiae as a subunit of TRAPPII) MAIETILVINKSGGLIYQRNFTNDEQKLNSNEYLILASTLHGVFAIASQLTPKALQLTQQTNIENTIPYIPYVGMSSNRSDTRNGGGNNNKHTNNEKLGSFKGDDFFKEPFTNWNKSGLRQLCTDQFTMFIYQTLTGLKFVAISSSVMPQRQPTIATTDKPDRPKSTSNLAIQIADNFLRKVYCLYSDYVMKDPSYSMEMPIRSNLFDEKVKKMVENLQ
5 | – | – | binds | Trs20 (TRAPP core subunit, in purified TRAPPII) (natural protein, S. cerevisiae, UniProt P38334 1-175, looked up, Trs20, S. cerevisiae, endogenous; source: endogenous, purified from S. cerevisiae as a subunit of TRAPPII) MPQYFAIIGKKDNPVYEIEFTNAENPQGFPQDLKELNPFILHASLDIVEDLQWQINPTSQLNGNGGNGSNGGGGFLRSRAVNNTDNCYLGKVDHFYGLAITAYISYSGMKFVMIHGNSANSSVVIDDNNMRSFYQEVHELYVKTLMNPFYKITDPIRSPAFDSRVRTLARKHLSK
